# Data taken from patent publication US20190309034A1 (Boehringer Ingelheim, published 2019).
# B1: Reference 2 (antibody, human IgG1, lambda, V domains shown)
# VH: QVQLQQSGAEVKKPGSSVRVSCKASGGTFNNNAINWVRQAPGQGLEWMGGIIPMFGTAKYSQNFQGRVAITADESTGTASMELSSLRSEDTAVYYCARSRDLLLFPHHALSPWGRGTMVTVSS
# VL: SSELTQDPAVSVALGQTVRVTCQGDSLRSYYASWYQQKPGQAPVLVIYGKNNRPSGIPDRFSGSSSGNTASLTITGAQAEDEADYYCSSRDSSGNHWVFGGGTELTVLG
# notes: Comparator anti-BAFF antibody
# B2: 13J018-1A4 (antibody, V domains shown)
# VH: QVQLQQSGPEVVRPGASVKISCKAPDHIFSIHWMQWVRQRPGPGLEWIGEIFPGSGTTDYNEKFKGKATVTVDRGSRSAYMQFNSLTSEDSAVYFCASGAFDYWGQGTTLTVSS
# VL: DIQMTQSPSSLSASLGERVSLTCRASQDIGNRLNWLQQEPDGTIKRLIYATSSLDSGVPKRFSGSRSGSDYSLTISSLESEDFVDYYCLQYASSPFTFGTGTKLEIK
# notes: Mouse lead antibody (hybridoma)
# B3: Ch-13J0-18-1A4 (antibody, V domains shown)
# VH: B2 VH
# VL: B2 VL
# B4: Reference 1 (antibody, human IgG4 S228P, kappa, V domains shown)
# VH: QVQLQQWGAGLLKPSETLSLTCAVYGGSFSGYYWSWIRQPPGKGLEWIGEINHSGSTNYNPSLKSRVTISVDTSKNQFSLKLSSVTAADTAVYYCARGYYDILTGYYYYFDYWGQGTLVTVSS
# VL: EIVLTQSPATLSLSPGERATLSCRASQSVSRYLAWYQQKPGQAPRLLIYDASNRATGIPARFSGSGSGTDSTLTISSLEPEDFAVYYCQQRSNWPRTFGQGTKVEIKR
# notes: Comparator anti-BAFF antibody
# B5: 235F5B9 (antibody, V domains shown)
# VH: QVQLQQPGAELVKPGASVKLSCKASGYSFSTFFIHWIQQRPGRGLEWIGRIDPNSGATKYNEKFESKATLTVDKPSSTAYMHLSSLTSEDSAVYYCARGEDLLIRTDALDYWGQGTSVTVSS
# VL: DIVMTQSQKIMSTTVGDRVSITCKASQNAGIDVAWFQQKPRQSPKLLIFSKSNRYTGVPDRFAGSGSGTDFTLTIYNVQSEDLADYFCLQYRSYPRTFGGGTKLEIK
# notes: as for B2
# B6: Ch-235F5B9 (antibody, V domains shown)
# VH: B5 VH
# VL: B5 VL
# Columns and labels:
# [1] = target: T1, Recombinant soluble trimeric human BAFF (furin-cleaved human BAFF 134-285) (human, UniProt Q9Y275 134-285); test: cell-based or functional assay
# [2] = target: T1, Recombinant soluble trimeric human BAFF …; test: cell-based or functional assay; remark: listed apart in the source
# [3] = target: T2, Recombinant soluble 60-mer human BAFF (His-HuBAFF 134-285) (human, UniProt Q9Y275 134-285); test: cell-based or functional assay
# [4] = target: T3, Human membrane-bound BAFF (mbBAFF) (human, UniProt Q9Y275 1-285); test: cell-based or functional assay
# [5] = target: T1, Recombinant soluble trimeric human BAFF …; test: cell-based or functional assay; remark: listed apart in the source
# [6] = target: T3, Human membrane-bound BAFF (mbBAFF); test: cell-based or functional assay; remark: listed apart in the source
# [7] = target: T1, Recombinant soluble trimeric human BAFF …; test: SPR, antibody captured on Protein A/G, soluble trimeric BAFF flowed over, 1:1 Langmuir global fit, apparent affinity
# Method: (§1) Apparent binding affinities were evaluated using surface plasmon resonance where the antibodies were captured at different surface densities on a Protein A/G surface. Soluble trimeric BAFF at different concentrations were flowed over the captured antibody. Clinical reference antibodies (Reference 1 comprising SEQ ID NOS: 98 and 116) and Reference 2 comprising SEQ ID NOS: 99 and 117) were used as comparators.
# [8] = target: T2, Recombinant soluble 60-mer human BAFF …; test: cell-based or functional assay; remark: listed apart in the source
# [9] = target: T1, Recombinant soluble trimeric human BAFF …; test: SPR, antibody captured on Protein A/G, soluble trimeric BAFF flowed over, 1:1 Langmuir global fit, apparent affinity (at detection limit)
# Method: as §1
Binder,Soluble trimeric huBAFF (52 pM) Neutralization IC90 [1],Soluble trimeric huBAFF (50 pM) Neutralization IC90 [2],Soluble 60-mer huBAFF (4 pM) Neutralization IC50 [3],Soluble 60-mer huBAFF (4 pM) Neutralization IC90 [3],Potent mbBAFF Neutralization IC50 [4],Potent mbBAFF Neutralization IC90 [4],"IC50 (neutralisation of soluble trimeric huBAFF activation of human BAFFR, luciferase reporter CHO cells) [5]","IC50 (neutralisation of mbBAFF activation of human BAFFR, fixed mbBAFF-CHO mixed with luciferase reporter BAFFR-CHO cells) [6]",Kd [7],Soluble 60-mer huBAFF (4.2 pM) Neutralization IC90 [8],"IC90 (neutralisation of soluble trimeric huBAFF activation of human BAFFR, luciferase reporter CHO cells) [5]",Kd [9]
B1,1000 pM,1000 pM,38300 pM,198000 pM,2180 pM,151 nM,0.22 nM,8.6 nM,0.0222 nM,,,
B2,305 pM,,,,,,0.11 nM,0.29 nM,,23 pM,0.35 nM,< 0.01 nM
B3,,,,,,,0.16 nM,0.41 nM,,,0.45 nM,
B4,290 pM,290 pM,40 pM,102 pM,177 pM,1.05 nM,0.12 nM,0.21 nM,,21 pM,,< 0.01 nM
B5,107 pM,,,,,,0.11 nM,0.18 nM,,2.2 pM,0.21 nM,< 0.01 nM
B6,,,,,,,0.13 nM,0.19 nM,,,0.27 nM,
